Results published in patent US20190185531A1.

What was measured:
Test in all cases: competition fluorescence anisotropy against fluoresceinated Bim BH3
[1] = target: Bcl-2 (c-myc-tagged) (human) (UniProt P10415)
[2] = target: T1, Bcl-w (c-myc-tagged) (human) (UniProt Q92843)
T1 sequence (looked up): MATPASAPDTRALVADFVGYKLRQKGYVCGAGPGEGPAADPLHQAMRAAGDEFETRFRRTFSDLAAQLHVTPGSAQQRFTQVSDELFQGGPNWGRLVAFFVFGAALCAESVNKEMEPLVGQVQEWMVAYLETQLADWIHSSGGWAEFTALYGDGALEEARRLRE

[3] = target: Bcl-xL (c-myc-tagged) (human) (UniProt Q07817)
Bcl-xL (c-myc-tagged) (human), sequence (Q07817 1-209): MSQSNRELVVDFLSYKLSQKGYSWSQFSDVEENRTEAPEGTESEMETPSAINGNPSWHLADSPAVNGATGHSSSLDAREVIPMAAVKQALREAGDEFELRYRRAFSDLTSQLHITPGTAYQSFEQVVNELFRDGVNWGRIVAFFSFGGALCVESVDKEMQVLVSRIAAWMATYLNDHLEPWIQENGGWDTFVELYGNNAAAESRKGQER

[4] = target: human Mcl-1 (c-myc-tagged) (human) (UniProt Q07820)
human Mcl-1 (c-myc-tagged) (human), sequence (Q07820 172-327 limits assumed): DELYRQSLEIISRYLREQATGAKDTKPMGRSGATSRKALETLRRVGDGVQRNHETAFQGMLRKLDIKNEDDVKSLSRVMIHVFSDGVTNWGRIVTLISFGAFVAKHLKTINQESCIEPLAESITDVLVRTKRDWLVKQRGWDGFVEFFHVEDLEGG

Measured: fold specificity for Bfl-1 relative to this protein

Bcl-2 (c-myc-tagged) (human), sequence (P10415 1-217 limits assumed): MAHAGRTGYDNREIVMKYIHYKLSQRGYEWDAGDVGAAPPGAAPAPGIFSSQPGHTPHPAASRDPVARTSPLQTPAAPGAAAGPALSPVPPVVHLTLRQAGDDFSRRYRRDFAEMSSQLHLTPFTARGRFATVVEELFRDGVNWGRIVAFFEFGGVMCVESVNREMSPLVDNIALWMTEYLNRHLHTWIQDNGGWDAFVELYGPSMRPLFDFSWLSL

Ac-QWVREIAAGLRLAADNVNAQLER-NH2 [FS1]
> 150 fold: all assays above
